# Paper PMC2577335
# Tests used:
# Assay in all cases: equilibrium binding isotherms of eEF2 on ribosomes
# [1] = biological target: yeast ribosomes (salt-washed) with ribosomal protein L3 mutant S2A (S. cerevisiae) (UniProt P14126)
# [2] = biological target: wild-type yeast ribosomes (salt-washed), with wild-type ribosomal protein L3 (S. cerevisiae) (UniProt P14126)
# [3] = biological target: yeast ribosomes (salt-washed) with ribosomal protein L3 mutant S2T (S. cerevisiae) (UniProt P14126)
# [4] = biological target: yeast ribosomes (salt-washed) with ribosomal protein L3 mutant S2K (S. cerevisiae) (UniProt P14126)
substance,measurement,setting,value
6 × His-tagged eEF2 (elongation factor 2) (from UniProt P32324 1-842) (natural protein),Kd,[1],19.9 nM
same,Kd,[2],18.7 nM
same,Kd,[3],20.7 nM
same,Kd,[4],20.4 nM
